Experimental data from patent US20190352423A1 (Genmab, published 2019).
Numbering of substitutions follows the chain as printed. In names and notes the source's numbering stands.

T1: recombinant human CD63 second extracellular domain (Ala 103-Val 203) fused with a polyhistidine tag at the … (human, UniProt P08962 103-203)
T1 construct: range 103-203; Bought from Creative BioMart; also called human His-tagged CD63; soluble CD63
T1 sequence (looked up): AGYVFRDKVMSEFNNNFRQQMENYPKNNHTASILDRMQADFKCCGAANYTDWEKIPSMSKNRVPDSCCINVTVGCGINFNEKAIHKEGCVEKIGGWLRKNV

B1: wild type IgG1-CD63 (antibody, V domains shown)
VH: EVQLQQSGPELVKPGASVKMSCKASGYTFTSYVMHWVRQTPGQGLEWIGYITPYNDGTKYNEKFKGKATLTSDKSSSTAYMELSSLTSEDSAVYYCVGGDNYYYAMDYWGQGTSVTVSA
VL: NIMVTQSPSSLAVSAGEKVTMSCKSSQSVLYSSNQKNYLAWYQQKPGQSPKLLIYWASTRVSGVPDRFTGSGSGTDFTLTISRVQAEDLAVYYCHQYFSSFTFGSGTKLEIKR
notes: Mouse 2192 variable domains on human IgG1 constant domains (heavy chain with K409R or F405L) and a human light chain constant domain; also called wt IgG1-CD63; WT
B2: IgG1-CD63 affinity variant LV49H (antibody, V domains shown)
VH: B1 VH
VL: B1 VL with V29H
notes: As m1 with one histidine substitution in the light chain
B3: anti-CD63-LN54H (antibody, V domains shown)
VH: B1 VH
VL: B1 VL with N34H
B4: IgG1-CD63 affinity variant G76H (antibody, V domains shown)
VH: B1 VH with G57H
VL: B1 VL
notes: As m1 with one histidine substitution
B5: IgG1-CD63 affinity variant Y121H (antibody, V domains shown)
VH: B1 VH with Y102H
VL: B1 VL
notes: as for B4
B6: IgG1-CD63 affinity variant LQ47 (antibody, V domains shown)
VH: B1 VH
VL: B1 VL with Q27H
notes: as for B2
B7: IgG1-CD63 affinity variant Y46 (antibody, V domains shown)
VH: B1 VH with Y27H
VL: B1 VL
notes: as for B4
B8: IgG1-CD63 affinity variant Y79H (antibody, V domains shown)
VH: B1 VH with Y60H
VL: B1 VL
notes: as for B4
B9: IgG1-CD63 affinity variant LY51H (antibody, V domains shown)
VH: B1 VH
VL: B1 VL with Y31H
notes: as for B2
B10: IgG1-CD63 affinity variant Y127 (antibody, V domains shown)
VH: B1 VH with Y108H
VL: B1 VL
notes: as for B4
B11: IgG1-CD63 affinity variant P72H (antibody, V domains shown)
VH: B1 VH with P53H
VL: B1 VL
B12: IgG1-CD63 affinity variant T71H (antibody, V domains shown)
VH: B1 VH with T52H
VL: B1 VL
B13: IgG1-CD63N74H (antibody, V domains shown)
VH: B1 VH with N55H
VL: B1 VL
notes: also called anti-CD63-N74H
B14: IgG1-CD63 affinity variant LS52 (antibody, V domains shown)
VH: B1 VH
VL: B1 VL with S32H
notes: as for B2

target: T1, recombinant human CD63 second …; test: BLI (Octet HTX), IgG on anti-human Fc sensors, His-tagged CD63 as analyte, 30 C
Experimental: Association and dissociation kinetics of human His-tagged CD63 (100 nM, 50 nM, 25 nM and 12.5 nM, concentrations were calculated using the predicted molecular weight of 13 kDa) were determined in Sample Diluent (ForteBio), using an association time of 1000 s, a dissociation time of 2000 s and a shaker speed of 1000 rpm at 30° C. Data traces were corrected using a reference sensor exposed to Sample Diluent only during the association and dissociation steps, the Y-axis was aligned to baseline and Inter-step correction as well as Savitzky-Golay filtering were applied. The association rate constant Kₒₙ (1/Ms), dissociation rate constant Kdis (1/s) and equilibrium dissociation constant KD (M) were determined with ForteBio Data Analysis Software v8.1, using the 1:1 model and a global full fit.

| Kd | koff | kon | Binder |
| --- | --- | --- | --- |
| 0.54 nM | 0.00011 s⁻¹ | 200000 M⁻¹ s⁻¹ | B1 |
| 27 nM | – | – | B2 |
| 2 nM | 0.00039 s⁻¹ | 190000 M⁻¹ s⁻¹ | B3 |
| 17 nM | 0.00038 s⁻¹ | 22000 M⁻¹ s⁻¹ | B4 |
| 20 nM | 0.0014 s⁻¹ | 70000 M⁻¹ s⁻¹ | B5 |
| 0.37 nM | 6.7e-05 s⁻¹ | 180000 M⁻¹ s⁻¹ | B6 |
| 0.78 nM | 0.00016 s⁻¹ | 200000 M⁻¹ s⁻¹ | B7 |
| 0.67 nM | 0.00014 s⁻¹ | 210000 M⁻¹ s⁻¹ | B8 |
| 20 nM | 0.0019 s⁻¹ | 98000 M⁻¹ s⁻¹ | B9 |
| 0.54 nM | 0.00011 s⁻¹ | 200000 M⁻¹ s⁻¹ | B10 |
| 3.3 nM | 0.00057 s⁻¹ | 170000 M⁻¹ s⁻¹ | B11 |
| 7.3 nM | 0.0011 s⁻¹ | 150000 M⁻¹ s⁻¹ | B12 |
| 4.1 nM | 0.00069 s⁻¹ | 170000 M⁻¹ s⁻¹ | B13 |
| 0.36 nM | 6.3e-05 s⁻¹ | 170000 M⁻¹ s⁻¹ | B14 |

target: T1, recombinant human CD63 second …; test: ELISA: antibody (1 µg/mL) captured on goat anti-human IgG, recombinant human His-tagged CD63 serially diluted (x axis, µg/mL CD63), detected with anti-poly-histidine-biotin, OD 405 nm
Text: To improve efficacy of ADCs, a bispecific ADC was generated that specifically binds to a target protein (T) with one Fab-arm, while its second Fab-arm binds an effector protein (E), that facilitates internalization and lysosomal delivery of the cytotoxic payload. The resulting bsADC should induce cytotoxicity in cells that express both T and E. Some cytotoxicity may also be induced in cells that express T but not E, whereas the bsADC should not induce cytotoxicity in cells that express E but not TCD63 is used as effector protein (E). To ensure tumor specificity of the bsAb, the anti-CD63 arm (E) of the bsAb should preferably not bind and internalize in the absence of the tumor-specific arm (T) or only do this to a very limited degree. […] In short, ELISA plates (Greiner) were coated overnight at 4° C. with 0.8 μg/mL goat anti-human IgG (Jackson). […] Serially diluted (1-0.0005 μg/mL) recombinant human CD63 (Creative Biomart) was added followed by 1 μg/mL mouse anti-poly-histidine-biotin (R&D). The reaction was visualized using ABTS and stopped with oxalic acid. […] at 405 nm was measured and depicted using Graph Pad Prism 6 software.

| EC50 (read off the curve) | Binder |
| --- | --- |
| ~0.01 µg/mL | B1 |
| ~0.06 µg/mL | B13 |
